Results published in a protein production outcome set (Wang et al. 2014).

Assay: label from the status in PepcDB records

Protein production, not failed:
MLTQYRQAQEDILRGRVKVRVVGQDKGGGVVMGEGVEIAPGARIEGPVLIGGACHIATGAVVGPFTVLGPYTRVEEGATVRRSVLWDNVYTGEGANVRGLEHHHHHH
MLYFIPTPIGNLSDISFRALELLKTCDLVFCEDTRVSKSLISLLNTKFHTDIHISKFIALHSHNEKEVLASIDLKIFEKNVAYLSDAGMPGISDPGKALVEFAQENNITYEILPGA
MMAKLVVCIIDGMADPPPPAGGVTPLAAAHTPHCDTLARHSVAGLCHVIQPEAVPGSEAGLSALLCCEAAASIARGPVEALAQGDPVAPHETVWRLNLVSLGPRGNYYNPAPLLDAATETAARKMLDRALGTQGYSLLGGKGFRHLCAGTEPPVLRDGPQDVCGMTPDTGQADLNSYCPRLARAMTEANVLFRRSRMDLAVWPWGAGTMPDLPGFAETTGQTGALAGGVPLARGLALALGMTAPSIAGATGGIDTDLGAKTRAAIALAAGHDVVYLHVEAPDLHAHALDRVAKRRAIERIDAEVVGPLHMALPDATLLITCDHATDCATGRHMAIPVPFILHKPDGPQDGIATFSEAASARTGIRIDSAATLVRLALADLEHHHHHH

Protein production, failed:
MLTQGNFDVLPVGDGAKRAQTVQPTVKLRIETIGVPRISDENGRNLTPVGSRNRVIPVILALSPRMTVGRRWLEALLWSDRGPDQASGSLRQALSSIRRQLGDARDILCANRTDIWMTSKDVTIDLLDDQQGVLQRLRAGRDFLEGIDILSEGFEDWLRQERASLLQMAEVELPARALPARLHATEAERPLSWTQEPPRFFLDQDLGLESDKLERFLTDAISTQLTQTVKSHFRADVRALDGTLTPVIVTPGARFAIRVTRINKAFAVLARMTEEPAGRLFWSRQLFIDSRETESMMDTAAALATEASEAMGARSFVASPAQQANVLAAEALADVFSFDPDRLRKAIRTLGRANDIDPHAPRPALKALALAFLALETRNTDRDHLIGEVTDLIRQSRALDSRNALALSFLADVQDLVFEDPQTALSYAKSALRSNPGIGYAYASLGALELRRGAAEAALIAASRAQRQLANSSLEVFSLMRLCVANLTAKDFDAAEQAAQRAAELAPTSQPPLRHLYALRLRRKDYAAARQTLRALRRLDPLFSMQYLRENPEFPAATIRTMQLHKLMDVELG
MLTTQGVPEFCYITIIGLILFMIFKEVLSQSKFWRKDLESSSNMVILPLLISFSAIVAYKIAEIL
MLVAAACFTIMNVLIKEASAKFALGSGELVFWRMLFSTVALGAAAVLRRDTFRTPHWKNHLNRSMVGTGAMLLLFYAVTHLPLATGVTLSYTSSIFLAVFSFLILKERISVYTQAVLLLGFAGVVLLLNPSFRSGQETAALAGLAGGAMSGWAYLKVRELSLAGEPGWRVVFYLSVTGVAMSSVWATLTGWHTLSFPSAVYLSCIGVSALIAQLSMTRAYKVGDKFTVASLSYMTVVFSALSAAFFLGEELFWQEILGMCIIILSGILSSIRPTAFKQRLQSLFRQR
MLVKFWGVRGSLPAPLTPAQVQSKIAAVVQRITLKDIESQDSRERFLASLPKWLFGTIGSNTACVEVETDDGGHLIFDAGTGIRELGIDLMKRPDYGKNTTYHLFFSHFHWDHIQGLPFFNPAYDPRNKIIVYSTRKKAKEFLEDQMKYPYFPISMLGEDGFGASFEFKYIEPDQKYVEIGDTKIGWHRVRHPGGCTAYSVIEKGKKIIYSTDTELRPRDFERNEQNAEFYTDAEMLIIDAQYTLTDSILKEGWGHSTFSVAIDFAAGWNIKSIALFHHEPTYHDKKVFSLKQTADWYRDCSRAPDIKIFIAQEGRSFLI
MLVLILSSGVSVAIATETNDLSIAAVLISPSDVVFAKEANTIVVYGITNSGTENLTNITVDVYASDVSGTVPVNTETISSLAGGGTTTIFITDPTIRDLQGSTVTYTAVIDPDNLIPETNEANNNRSSAAVPVRYNGYKGKRYWEGASDITTKHTYDFNGDVSSSSQPSTSYRSQGAWSNGRTETWGGSVPNPDLPSGSTIEQALLYVAYNWDETPGGYPWWNVSFNNVIIDYGNISTGNGILYTDMSNFGLYADYEYGLVVYDVTNLYNSTDYNGLKMYPYNSTFADLTALYPSTLVIIYQNPNMTRKQIFINEECDELGVSESTYGTTPEEATAYAPFTGMSIDVSNVSNATLYSFAGSAGPDEGNLLFNGNTVATNAWHGDAYTASASVFDVKNYINSTGNEAGIQGTVSGGMDVLQQILVVEYVESVPSALDANLTANVTSGTAPLTVQFTDLSEGNVTNWLWDFGDNTNSTSQNVSHTYNSPGTYTVNLTVTGPEGSDSEVKTDFITVSDSNVSAPVAAFTATPLVGTAPLQVAFTDQSTNSPTEWKWEYNNGSGWVEFSNETNASYSFATAVPYDIQLTVSNSGGSDDETKLHYISVGNVREPLNTVQSGTVSGDLYISSPTTWPATEVNQTFTLPAAAVGNIQWAKLYVNTYSGSAANTYALSSTVKLDGDGDSTYESTLGTETMDIASLTNGASFPLNDHVNKVYSDYEAQYDVTSLISAANPAINVKSEAISGKNFDGRIKGVTLVVAYNNTSSTDQTYYWVNHGGDWSSPANGNTIFDTSGLSSGWVSAESKIRYFSYSDANYTFNGVAKTGSTPSNYSGLNTWDVTDNITAGQSSTLAYSKGSGSYKTTLATLKVKYETPGFSNKVTLGDTSPVSPTLASLNGRLYLAWKGDGNNNLNVMYSADNGMTFGNKYTSSETSPESPALCVHNNSLYIAWKGNGSNYLNVAQVTMNGDNITDFSNKVTLGDTSPVSPALASLNGRLYLAWKGDGNNNLNVMYSADNGMTFGNKYTSSETSPESPALCVHNNSLYIAWKGNGNNYLNVAQVTMNGDNITDFSNKVTLGDTSPVSPALASLNGRLYLAWKGDGNNNLNVMYSADNGMTFGNKYTSPETSPESPALCVHNNSLYIAWKGDGNNNLNVAQVI
MLVNRIISATVAGLVAVVIGFASSVALIYQTVINLGGDASLASSWILTLGLSMGITSIALSFYYRVPILIAWSTPGAALLIANTQNFNLNEAIAGFMFSALLIFLCGITGWFEKLINKLPFQLASAMLGGILVNFGIDVFNQMNKAPLLVIVMFFTYLVCRQLMPKFTMLFVLIISVVLAWQLKLMTFTAFSWQLSEFTYISPEFNMSAVLGIGIPLFLVTMAAQNLPGIAVLKAHNYKAPVSSILSVTGFVNMLAAPFGGYAINLAAITAAICMTKDVDKDPKKRYWAGISGGGFYILMAISAGYLMQAFASLPNALIYSLAGMALFTTINSSIQQALSDDKMSEAAIITFLVTASNLSLWDISSVLWGLIAGSITLMTQSLLNRSNDKLC
MLVSEMHGEVEAVKVGTEVQGRVLHWVYLYYYRNLLFDAGCPNTAQEVFEHFKGREIKAVLITHYHEDHIGAVNLFKEITDVYVPEESLEILRNPPDIPKYRKIGWGQPEKIEGVKVAKEVMKFDDVEVRMIKTPGHSFDHVSYLVDDKLFCGDLVINTAQMVCMREENLLKTIESIEKVLKYDFNYAYTGVGVASRDEVVEYLNYLKGLKEKAEMLYAEGKTIDEIVAACFPNPSQKAILMEFVSEKEWARENMVKSLLGLPRE
MLVSPDTPRFLAARLLLGAWLACGAGAQAQTLLDTSAAIGVQNTLNQIQPGVTQVPGSLSVQFDACKMAPESCKDGQPIGAAPAPATSGQSAQNAQSAQPAPSQVAPAAPTTPTQTTPTPAGEAPATRPVPTVVPLTAEQQQLLQAAQAQFAAGRYPQARNEFEALIVRNYNNPEPHFGLGLALYQLGDLRGATFEFGQFMQFAPQRYEGPYNLGVIATREGRYPDALRLYGEALTLAQSAPPAARQVLLRALATEQGRVKDYVALAATYADLRAADPENVEYIFRHAQALYQAGQVADALPVTYAVLERKPSSLQAALLLADLYVAQGLPDRAVRELSAAAARVLTGTDRATLLLRQSDLLLAQNNLRGALNAASEARQEDRRLPAAIIREAELLAQFGQRPAAVRAYRDALALTPKSAPIQAALAALYLEGNQYPEAAQAAQQALKLTPDASTRARALYVQGVVAYRQGQYTQARTALNSSVLAVPDADSLLWLGLSYYALKDYASAVPVLSESVRLRPTPAARQNLAAALLATARYAEAEALLRGLVTDEVKNAEGWYLLGLSQRAQQRPDDARQSFKTAAGLGSARAKDALK
MLVTVMIPTYNQKDYVGSAIESALAQTYADLEIVVADDASPDPGVAKVLERYRNHPKVRLYRNAQNLGRVANYRKTLYERARGEWVINLDGDDYLVDPCFVEDAVGVVKKHPDIVAVLGGRKVLQASGTHKVQQANVCLSGRVAPRDVFSGILDGTLFPYHNATLYSRTHALAIGFYEQDIVSSDLESFLRLFARGAVGVLPRIVGVWREHSGNTSGTMAFSDYLANIQVFESVMHTAEEPDIAVKSSFLKSWSSRYAYSKGKDYAYRLLKDSDSPSLCFGYLKRLSKVSSVAALRILIQPKVLFNLLARALPSQISRCFR
MLWFAMSSVLRVRPTKIELIRLKRRKALAEKVHRILRERLTILVNEFLVRVREAYSLRRTVNDLVFNLYNDSVLLNSVYGEYGFQYFRSITVEGLRAVIGVENIMGVKTRSAVVKHSKTIEYVYPGFDSFRDGARKLIEAIIELGRAEQALIALGREIERTKRKVNALKYIIIPRLANTIRYLNMKFEEREREEKARLKRIKSVLEKRR
MLWFGQPGPGGWNRKCLRPFTLPRGQHPQPSYGFPQVNEVVFSPGESHCATCSEDGSVRVWALASMELVIQFQVLNQSCLCLAWSPPCCGRPEQQRLAAGYGDGSLRIFSVSRTAMELKMHPHPVALTTVAFSTDGQTVLSGDKDGLVAVSHPCTGTTFRVLSDHQGAPISTICVTCKETQGHLPPSLAAFCPWDGALLMYVGPGVYKEVIIYNLCQKQVVEKIPLPFFAMSLSLSPGTHLLAVGFAECMLRLVDCAMGTAQDFAGHDNAVHLCRFTPSARLLFTAARNEILVWEVPGL
MLWSFIAVCFSAWLYVDASYRGPAWRRWVFKPVTLILLLLLAWQAPMFNAISYLVLAGLCASLLGDALTLLPRQRVMYAVGAFFLSHLLYTIWFASQLTLSFFWPLPLVLLVFGALLMAVIWSRLEEMKMPVLTFIGMTLVMVWLAGELWFARPTNTALSGFAGAALLLLSNAVWLVSHYRRRFRADNAIAAAFYFAGHFLIVRALYL
MLYHKLGYVQSAQQTLREVMTIWQAWFKALKAYRKNPARFTGRPRMPRYLHKSQRHTFYVTNQNAQIVRKDEQDKGYLVIKKLGIKIKLASADIKKIGRVAFKPVANGYKVIVPYKTKQKIKYLPDNGKYLGIDPGIDNAFACVSNTGARPLLINGRGIKSVNQYYNKKRSELKRLQAKYHQLEKLISTKQGLKPVYQETKAMKRITAWRNDKIRQFAHKASKRIVDYALSCDANTIVIGKNKSWKRSFEMGKRNNQNFIGIPHQVMIDMIKYKANLAGITVIQTNESYTSQISALDHEQPCWNNGNKSRKKQRKSPVNRRIKRGLFKADNGTLINADINGALQIIKKVFPNFSLDDGIVGAVLRPFKWSPTI
MLYIFLLPIIGLALAFIINKIFPRAQFRGYDVLPFFFIAACSLITLHINRPSFLPYGFLLYFILVIVVSLSDAIRNKNISLGKTIRKLWDYLAACTCFWYLGLLIMMFL
MMAQRSLFQCESSVDEELDRMEIRTLTRYGENRRRDKGVPIECDCNAKVVVVTSLDPVTTGKLFFSCPYEISDGPGQGCGFKRWWTVALCDEFDMIKEETTEMKKDLEAANKRVESLAEKIFLMEKKFETLEKKYESLNKYL
